Experimental data published in EP1073891B1, “METHOD OF PREDICTING RECEPTOR MODULATING ACTIVITY” (Duke University, priority 1998, dated 1999).

What was measured:
[1] = biological target: T1, ERα (Homo sapiens, UniProt P03372); assay: Phage ELISA / fingerprint on ER immobilized on biotinylated ERE (Examples 2.3-2.5); format: binding; set-up: purchased PanVera Corporation, Madison, WI; key to binding activity, ERα and buffer / binding activity, ERα and estradiol / binding activity, ERα and tamoxifen / binding of peptide, Class Specific Fingerprint on ERα: semiquantitative scale of 0 to 7+; 1+: semiquantitative scale of 0 to 7+; 2+: semiquantitative scale of 0 to 7+; 3+: semiquantitative scale of 0 to 7+; 4+: semiquantitative scale of 0 to 7+; 5+: semiquantitative scale of 0 to 7+; 6+: semiquantitative scale of 0 to 7+; semiquantitative scale of 0 to 7+; conditions: for binding activity, ERα and estradiol: ERα and estradiol (1 µM); for binding activity, ERα and tamoxifen: ERα and tamoxifen (4-OH tamoxifen, 1 µM)
T1 sequence (P03372 1-595): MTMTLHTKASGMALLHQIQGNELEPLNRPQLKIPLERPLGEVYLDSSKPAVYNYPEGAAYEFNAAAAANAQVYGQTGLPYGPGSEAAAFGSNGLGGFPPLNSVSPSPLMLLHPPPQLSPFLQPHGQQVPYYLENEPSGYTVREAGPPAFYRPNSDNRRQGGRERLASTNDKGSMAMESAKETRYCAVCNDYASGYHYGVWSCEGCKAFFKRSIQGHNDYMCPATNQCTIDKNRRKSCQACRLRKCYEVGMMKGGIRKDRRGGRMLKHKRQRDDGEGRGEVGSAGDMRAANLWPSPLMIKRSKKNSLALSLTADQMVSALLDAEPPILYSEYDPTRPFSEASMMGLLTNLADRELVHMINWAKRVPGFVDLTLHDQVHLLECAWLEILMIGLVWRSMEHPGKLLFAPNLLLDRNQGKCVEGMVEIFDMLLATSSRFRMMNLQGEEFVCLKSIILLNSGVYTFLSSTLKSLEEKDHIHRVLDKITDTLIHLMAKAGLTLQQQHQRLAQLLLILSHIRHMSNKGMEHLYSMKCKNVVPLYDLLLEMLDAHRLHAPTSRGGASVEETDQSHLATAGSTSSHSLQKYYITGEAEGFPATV

[2] = biological target: ERβ (Homo sapiens, UniProt Q92731); assay: as above; format: binding; set-up: purchased PanVera Corporation, Madison, WI; key: semiquantitative scale of 0 to 7+; 1+: semiquantitative scale of 0 to 7+; 2+: semiquantitative scale of 0 to 7+; 3+: semiquantitative scale of 0 to 7+; 4+: semiquantitative scale of 0 to 7+; 5+: semiquantitative scale of 0 to 7+; 6+: semiquantitative scale of 0 to 7+; semiquantitative scale of 0 to 7+; conditions: for binding activity, ERβ and Estradiol: ERβ and Estradiol (1 µM); for binding activity, ERβ and tamoxifen: ERβ and tamoxifen (4-OH tamoxifen, 1 µM)
ERβ, sequence (Q92731 whole entry): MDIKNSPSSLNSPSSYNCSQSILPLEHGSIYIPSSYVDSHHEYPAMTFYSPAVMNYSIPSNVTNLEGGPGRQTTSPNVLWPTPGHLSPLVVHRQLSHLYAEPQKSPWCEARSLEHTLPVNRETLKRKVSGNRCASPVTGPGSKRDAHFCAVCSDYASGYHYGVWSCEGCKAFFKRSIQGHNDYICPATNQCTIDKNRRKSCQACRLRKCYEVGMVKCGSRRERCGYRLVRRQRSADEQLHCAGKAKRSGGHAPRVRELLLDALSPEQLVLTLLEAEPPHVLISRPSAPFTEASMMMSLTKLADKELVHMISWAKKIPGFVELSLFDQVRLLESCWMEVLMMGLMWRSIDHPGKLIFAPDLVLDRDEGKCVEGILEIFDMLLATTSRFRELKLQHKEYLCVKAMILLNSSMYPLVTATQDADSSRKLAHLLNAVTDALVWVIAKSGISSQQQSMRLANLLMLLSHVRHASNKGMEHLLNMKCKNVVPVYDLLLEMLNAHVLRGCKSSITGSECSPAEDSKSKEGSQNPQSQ

binding activity, ERα and buffer [1] | binding activity, ERα and estradiol [1] | binding activity, ERα and tamoxifen [1] | binding activity, ERβ and Estradiol [2] | binding activity, ERβ and buffer [2] | binding activity, ERβ and tamoxifen [2] | Sequence
6+ | 6+ | 5+ | 7+ | 5+ | 2+ | SSLQAGSWLMHYLRGGDSR [Peptide 23E-β]
5+ | 4+ | 4+ | 7+ | 5+ | 2+ | SSQWQAPWWYIDASR [Peptide 32E-β]
4+ | 5+ | 3+ | 7+ | 5+ | 2+ | SSRCSSLLCEMLIQTKESR [Peptide 22E-β]
3+ | 3+ | 6+ | 3+ | 3+ | 7+ | SSRLVPHSFWLDGLMHGSR [Peptide 21t-β]
3+ | 3+ | 2+ | 7+ | 5+ | 2+ | SSRPSFTIPWWFDDPSRSR [Peptide 33E-β]
4+ | 6+ | 3+ | 7+ | 6+ | 2+ | SSRTLYCHLTSSNPEWCSR [Peptide 27E-β]
4+ | 3+ | 3+ | 7+ | 3+ | 2+ | SSTRLMCWLGSADTSHCSR [Peptide 28E-β]

The remaining lines, values behind:

Sequence | binding activity, ERα and buffer [1] | binding activity, ERα and estradiol [1] | binding activity, ERα and tamoxifen [1] | binding activity, ERβ and Estradiol [2] | binding activity, ERβ and buffer [2] | binding activity, ERβ and tamoxifen [2]
SSLKCLLQSSPQKQPFCSR [Peptide 19E-β] | 4+ | 5+ | 3+ | 7+ | 4+ | 2+
SSPGSREWFKDMLSR [Peptide 14t-β] | 2+ | 2+ | 7+ | 2+ | 3+ | 7+
SSPTGHRLLESLLLNSNSR [Peptide 8E-β] | 4+ | 6+ | 3+ | 7+ | 5+ | 1+
SSQEEWLLPWRLASR [Peptide 8t-β] | 2+ | 2+ | 2+ | 5+ | 7+ | 5+
SSQVWPGPWRLVESR [Peptide 14b-β] | 2+ | 2+ | 3+ | 7+ | 7+ | 7+
SSRGLLWDLLTKDSR [Peptide 1E-β] | 5+ | 7+ | 5+ | 7+ | 5+ | 3+
SSRLLCLLDAGQCSR [Peptide 16E-β] | 3+ | 6+ | 3+ | 7+ | 6+ | 2+
SSRTLLEHYLLGGSR [Peptide 20E-β] | 5+ | 5+ | 4+ | 7+ | 3+ | 2+
SSRTPILFSLLETSR [Peptide 11E-β] | 6+ | 5+ | 6+ | 6+ | 5+ | 4+
SSSGPWRWGLSIESR [Peptide 17b-β] | 2+ | 2+ | 3+ | 2+ | 5+ | 4+
SSSLGPWRLSELESR [Peptide 16b-β] | 2+ | 3+ | 3+ | 4+ | 7+ | 5+
SSSMMREFFERELSR [Peptide 5b-β] | 6+ | 6+ | 7+ | 6+ | 7+ | 7+
SSTSWLHHYLMGTSR [Peptide 8b-β] | 1+ | 4+ | 2+ | 7+ | 7+ | 1+
